Measured values: article PMC4370635, “ARF6 Promotes the Formation of Rac1 and WAVE-Dependent Ventral F-Actin Rosettes in Breast Cancer Cells in Response to Epidermal Growth Factor” (PLoS ONE, 2015)

Biological target: T1, GST fused with the ARF6-binding domain (LZII, leucine zipper II domain) of human JIP3 (aa 371-507) (human, UniProt Q9UPT6 371-507)
T1 construct: JIP3, human, residues 371-507 (LZII, leucine zipper II domain); also called GST-LZII; LZII domain of human JIP3; source: pGEX construct, purified as described [35]; not shown: GST, N-terminal, kept
T1 sequence (looked up): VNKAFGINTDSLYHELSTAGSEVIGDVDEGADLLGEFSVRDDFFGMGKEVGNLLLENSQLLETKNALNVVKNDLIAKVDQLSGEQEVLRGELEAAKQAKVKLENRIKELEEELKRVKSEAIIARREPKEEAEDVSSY
Test: pull-down; GST-LZII (37 ug/reaction) incubated with cleared MDA-MB-231 cell lysates for 15 min at 4°C with 0.5% BSA, then glutathione-Sepharose beads for 1 h at 4°C; lysis buffer 50 mM Tris pH 7.4, 137 mM NaCl, 10 mM MgCl2, 10% glycerol, 1% Triton-X100; bound proteins immunoblotted with anti-ARF6 monoclonal antibody
Settings: one partner purified

fold increase in GTP-ARF6 pulled down, against parental MDA-MB-231 cells: ~4 fold
B1: ARF6T157N (natural protein, UniProt P62330 1-175, looked up)
chain: MGKVLSKIFGNKEMRILMLGLDAAGKTTILYKLKLGQSVTTIPTVGFNVETVTYKNVKFNVWDVGGQDKIRPLWRHYYTGTQGLIFVVDCADRDRIDEARQELHRIINDREMRDAIILIFANKQDLPDAMKPHEIQEKLGLTRIRDRNWYVQPSCANSGDGLYEGLTWLTSNYKS
notes: ADP-ribosylation factor 6 (ARF6), fast-cycling mutant T157N; also called fast-cycling mutant of ARF6; ARF6T15TN
